Experiments:
Test in all cases: FRET or BRET; sensitized emission FRET in the nucleus of living HeLa cells transfected with CFP and YFP fusion vectors; mean FRET efficiency of cells above a 5% threshold
Conditions in all cases: partners not purified
[1] = target: T1, YFP-TAF9 (UniProt Q16594 1-264)
T1 construct: TAF9 as a YFP fusion; the construct is not described; source: HeLa cells, transfected, in living cells
T1 sequence (looked up): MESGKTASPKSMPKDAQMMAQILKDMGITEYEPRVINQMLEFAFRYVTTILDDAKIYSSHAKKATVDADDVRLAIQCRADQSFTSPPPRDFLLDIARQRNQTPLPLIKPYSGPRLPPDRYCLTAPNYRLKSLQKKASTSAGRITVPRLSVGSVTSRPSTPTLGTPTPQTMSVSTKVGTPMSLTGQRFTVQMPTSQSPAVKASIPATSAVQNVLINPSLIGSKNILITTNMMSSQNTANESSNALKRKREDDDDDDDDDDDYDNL

[2] = target: T2, YFP-TAF10 (human, UniProt Q12962 1-218)
T2 construct: human TAF10 as a YFP fusion; vector described in earlier work; source: HeLa cells, transfected, in living cells
T2 sequence (Q12962 whole entry, the tested form may be a part): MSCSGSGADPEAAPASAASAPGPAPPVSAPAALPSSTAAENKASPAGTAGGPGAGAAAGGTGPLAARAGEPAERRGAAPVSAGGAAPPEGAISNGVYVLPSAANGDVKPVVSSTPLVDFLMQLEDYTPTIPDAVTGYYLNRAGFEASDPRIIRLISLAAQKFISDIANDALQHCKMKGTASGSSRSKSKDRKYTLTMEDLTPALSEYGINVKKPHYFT

[3] = target: T3, YFP-SPT7L (human, UniProt O94864 1-414)
T3 construct: human SPT7L as a YFP fusion; vector described in earlier work; source: HeLa cells, transfected, in living cells
T3 sequence (looked up): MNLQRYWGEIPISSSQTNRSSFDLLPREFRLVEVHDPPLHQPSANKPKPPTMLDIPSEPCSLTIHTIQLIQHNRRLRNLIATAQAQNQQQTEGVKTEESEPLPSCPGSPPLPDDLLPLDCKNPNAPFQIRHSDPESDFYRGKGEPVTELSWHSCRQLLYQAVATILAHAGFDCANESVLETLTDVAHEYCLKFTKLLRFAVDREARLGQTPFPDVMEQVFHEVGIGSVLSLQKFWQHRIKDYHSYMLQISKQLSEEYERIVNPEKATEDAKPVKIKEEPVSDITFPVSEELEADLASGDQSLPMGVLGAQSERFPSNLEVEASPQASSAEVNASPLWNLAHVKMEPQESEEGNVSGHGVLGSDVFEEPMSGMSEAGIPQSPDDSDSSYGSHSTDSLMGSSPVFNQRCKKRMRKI

B1: CFP-TAF6 (natural protein)
chain: not shown
notes: TAF6 as a CFP fusion; the construct is not described; source: HeLa cells, transfected, in living cells
With B1 the FRET efficiency [1] was 27.1%.

B2: CFP-TAF8 (natural protein, UniProt Q7Z7C8 1-310, looked up)
chain: MADAAATAGAGGSGTRSGSKQSTNPADNYHLARRRTLQVVVSSLLTEAGFESAEKASVETLTEMLQSYISEIGRSAKSYCEHTARTQPTLSDIVVTLVEMGFNVDTLPAYAKRSQRMVITAPPVTNQPVTPKALTAGQNRPHPPHIPSHFPEFPDPHTYIKTPTYREPVSDYQVLREKAASQRRDVERALTRFMAKTGETQSLFKDDVSTFPLIAARPFTIPYLTALLPSELEMQQMEETDSSEQDEQTDTENLALHISMEDSGAEKENTSVLQQNPSLSGSRNGEENIIDNPYLRPVKKPKIRRKKSLS
notes: TAF8 as a CFP fusion; vector described in earlier work; source: HeLa cells, transfected, in living cells
B2 showed an FRET efficiency [2] of 16.9% and an FRET efficiency [3] of 15.8%.

— publication PMC1820849, “Identification of a Small TAF Complex and Its Role in the Assembly of TAF-Containing Complexes” (PLoS ONE, 2007)
